US11707511B2, “Vaccine compositions and methods of using the same” (The Board of Supervisors of Louisiana State University and …, priority 2017, dated 2023)
“Also recorded” adds a separate entry of the source.

Key:
[1] = Induction of specific anti-peptide antibody responses in immunized mice; type: in vivo; conditions: BALB/c mice; peptide-pulsed DC; data not shown
From the text: (§1) To perform rapid throughput evaluation of peptide vaccine candidates, immunizations were done by use of the similar antigen-pulsed DC based vaccine strategy with modification by totally removing CFA from vaccine formula. Fba peptide was used as positive control.
The double chimeric peptide conjugate vaccines have been tested for their abilities to induce specific anti-peptide antibodies and protective immunity against the disease caused by C. albicans. […] The enhancement in vaccine efficacy was evidenced by both increased survival and reduced or non-detectable fungal burden (colony forming units, CFUs) in kidneys of animals.

[2] = test system: medically important Candida spp; experiment: DC-based immunization with universal peptides, coverage of medically important Candida spp; type: in vivo; conditions: in words
From the text: Novel universal peptides as described herein can be excellent peptide vaccines against C. ablicans infection.

C. albicans = experiment: Active immunization with peptide-pulsed dendritic cells, disseminated candidiasis caused by C. albicans in mice; type: in vivo, Candida albicans
Procedure: (§2) Active Immunizations with peptide pulsed dendritic cells. […] It allows us to perform rapid throughput evaluation of candidate short peptides. When protective double universal peptide conjugate(s) become identified by this study, immunization approaches suitable for human use will be applied in further studies. All active vaccinations were conducted as previously described (6,7,9). DCs were pulsed in vitro with universal peptide as described before with minor modification by totally removing CFA for last booster (6). Briefly, DCs in culture were pulsed with the peptide antigen (1 μM) on day 6. On day 7, PGE2 (10^-7M) was added along with LPS (2 μg/ml, Sigma) for 24 h to induce DC maturation. On day 9, antigen-pulsed DCs were washed extensively and […] in 200 μl DPBS were given by intraperitoneal (i.p.) route as the priming dose to mice. The mice were boosted i.p. at day 14 and day 28 with fresh antigen-pulsed DCs without adjuvant.
Table 2 lists universal peptide vaccines that induced protection against disseminated candidiasis caused by C. albicans in mice. The universal peptide vaccines listed in Table 1 are expressed at high homology by all analyzed medically important Candida species in addition to C. albicans (see details at Table 2). By dendritic cell (DC) based immunization approach as described herein, each of the universal peptide vaccines was able to protect mice against disseminated candidiasis caused by C. albicans, with the survival rate 80-100% up to 80-120 days post challenge.
as §1

[3] = test system: C. tropicalis (ATCC 20336); experiment: Peptide-vaccinated mice challenged with lethal dose of C. tropicalis; type: in vivo
Procedure: as §2
Peptide-vaccinated mice were challenged with lethal dose of live C. tropicalis cells (ATCC 20336; i.v. challenge dose: 1×10^6/mouse).

C. albicans 3153A = experiment: Passive transfer of mAbs or mAb cocktails i.p. before lethal i.v. challenge, mouse model of human disseminated candidiasis; type: in vivo, Candida albicans; conditions: Table 14; for Protection of adsorbed mAb: mAb removed by absorption with Candida cells before transfer; for Protection / Protection (grade word): single mAb, C. albicans
Procedure: Passive transfer of MAbs by intraperitoneal (i.p.) route. The preventive effect of peptide-specific mAbs listed in Table 3 and Table 4 in naïve mice was examined by passive transfer experiments. […] For testing, mice received 0.5 ml of each mAb or 1 ml of two mAbs in combination (0.5 ml of each) intraperitoneally. […] The negative control materials tested in mice were single mAb or DPBS. Control mice received 0.5 ml of the DPBS diluents or single mAb treatment. For each condition, 6- to 8-week-old female BALB/c mice (NCI) were given 0.5 ml of test mAb, or 1 ml two mAb cocktails or control materials intraperitoneally, followed 4 h later by 0.1 ml intravenously of defined lethal dose of yeast cells per milliliter of DPBS. Mice were divided into groups with five mice each and three independent experiments were carried out. In some experiments, mice were given the same dose of mAbs or control materials on every other day post-challenge for two weeks, as compared to the protective efficacy of mAb in combinations. All mice were sacrificed on day 50. For animal groups that were challenged non-albicans candida species, determined optimal challenge doses were applied for each candida strain.
The hybridoma clones that produce the universal peptide specific mAbs listed above were generated from mice vaccinated with peptide-pulsed dendritic cell (DC) preparation as described previously (6). The isotype of mAb was determined with a Mouse Monoclonal Antibody Isotyping Kit (Pierce, USA). […] In detail, BALB/c mice were given an i.p dose of each mAb four hours before hematogenous challenged with a lethal dose of C. albicans3153A cells. […] Importantly, passive protection was prevented by removal of the mAbs by absorption with Candida cells before transfer, which provided strong additional evidence for the protection being due to the mAb.
The three cell wall proteins were selected because of expression during human candidiasis and cell wall association, and included fructose-bisphosphate aldolase (Fba); methyltetrahydropteroyltriglutamate-homocysteine methyltransferase (Met6); hyphal wall protein-1 (Hwp1). The hybridoma clones listed at Table 5, which produce the peptide specific mAbs, were generated from mice vaccinated with peptide-pulsed dendritic cell (DC) preparation as described previously (6). The isotype of mAb was determined with a Mouse Monoclonal Antibody Isotyping Kit (Pierce, USA). […] Importantly, passive protection was prevented by removal of the mAbs by absorption with Candida cells before transfer, which provided strong additional evidence for the protection being due to the mAb).
The preventive effect of each universal peptide-specific mAb was examined by passive transfer experiments. […] For testing, 5 mice of each tested group received 0.5 ml of each mAb intraperitoneally. The negative control materials tested in mice were mAbs absorbed with C. albicans yeast cells (3153A) and DPBS. Control mice received 0.5 ml of the DPBS diluents or adsorbed mAb solution. For each condition, 6- to 8-week-old female BALB/c mice (NCI) were given 0.5 ml of test mAb, or control materials intraperitoneally, followed 4 h later by 0.1 ml intravenously of a suspension containing lethal dose of Candida cells per milliliter of DPBS. Mice were divided into groups with five mice each and three independent experiments were carried out. We have developed neutropenic murine models of disseminated infection by C. glabrata, C. tropicalis and C. parapsilosis. To induce neutropenia, naïve mice received a 200 mg/kg dose of cyclophosphamide (CY) by i.p. on day −3. Prolonged neutropenia were maintained for 30-50 days by giving each animal a 150 mg/kg dose of CY by i.p. every 10 days after infection.

C. auris AR-0386 = experiment: Passive transfer of mAbs or two mAbs in combination in A/J mouse model of invasive C. auris infection; type: in vivo, Candida auris; conditions: Table 19; A/J strain mice
Procedure: A. Complement protein C5-defecient A/J mice were treated with one of the five mAb or with DPBS as a vehicle control. The following day, mice were challenged with 1×10^8 C. auris cells/100 ul DPBS dose per mouse. […] B. Fungal burdens in the kidneys (top), heard (center), and brain (bottom).
Identified protective mAbs were obtained by use of standard hybridoma technique and purified by use of protein A/G. A/J mice were given an i.p. dose of either single mAb or two mAbs in combination 24 hours before hematogensous challenge with a lethal dose (2×108) of C. auris AR-0386 live cells. Mice received either 9G2F5 alone or 6H1G8 alone or 9F2G5 and 3H7E3 in combination had 40% survival rate respectively, with prolonged survival as compared to control animals that received DPBS buffer control.
Evaluation and validation of a panel of peptide-specific monoclonal antibodies (mAbs) as a passive immunization strategy protect against invasive C. auris infection in established A/J mouse model of human disease.
The monoclonal antibodies used in this experiment were: • 6H1G8 (IgG2b), α-Hwp1 (Hyphal wall protein) • 3E2G2 (IgG2b), α-Fba (Fructose bisphosphate aldolase) • 10E7E2 (IgG1), α-GPV-P3 (General peptide vaccine 3 from Phosphoglycerate kinase) • 9F2G5 (IgG2a), α-Pgk1 (Phosphoglycerate kinase) • 3H7E3 (IgG1), α-Met6 (Methyltetrahydropteroyltriglutamate)

C. auris = experiment: Passive transfer of mAbs in cyclophosphamide-immunosuppressed B6.129X1Elane mice, disseminated infection by C. auris; type: in vivo, Candida auris; conditions: 2×108 C. auris i.v.
Procedure: An immunocompromised murine model of disseminated infection by C. auris was developed. To induce immunosuppression, Jackson B6.129X1Elane mice received a 200 mg/kg dose of cyclophosphamide (CY) by i.p. on day −3. Prolonged immunosuppression was maintained for 30 days by giving each animal a 200 mg/kg dose of CY by i.p. every 10 days after infection. On day 0, mice of different experimental groups were intravenously infected with 2×10^8 viable C. auris yeast cells.
The preventive effect of peptide-specific mAbs, for example 7H6A2 and 1D4H5, and combinations thereof, for example 7H6A2+1D4H5, was examined by passive transfer experiments. Each mAb was appropriately diluted in DPBS to give a 40,000-100,000 ELISA titer against each corresponding specific peptide coated on the plate. For testing, mice received 0.5 ml of each mAb or 1 ml of two mAbs in combination (0.5 ml of each) intraperitoneally. Control mice received 0.5 ml of the DPBS diluents.
Protective mAbs protect immunocompromised mice against disseminated infection by Candida auris: The possibility of using passive mAb immunotherapy in immunocompromised mice against disseminated candidiasis by C. auris. The protective effect of mAb 7H6A2, 1D4H5 or these two mAbs in combination against the disease in immunocompromised mice was examined by passive transfer experiments (FIG. 14). Mice received either mAb 7H6A2 or 1D4H5 or the two mAbs in combination had reduced CFUs in kidneys (FIG. 14A) and in brains (FIG. 14B) as compared with control mice.

Molecule: PAINVTSSSTVVAALEAA [FbaU2]
- specific antibody responses [1]: able to induce specific antibody responses

Molecule: TTTIGSFPQTKDIR (CTTTIGSFPQTKDIR; (1)..(1) May or may not be present) [GPV-M2]
- coverage against medically important Candida spp [2]: able to provide broad coverage

Molecule: AILGGSKVSDKI (CAILGGSKVSDKI) [GPV-P1]
- coverage against medically important Candida spp [2]: able to provide broad coverage

Molecule: SSSTVVAAL [Fba4]
- specific antibody responses [1]: able to induce specific antibody responses

Molecule: FAIPAINVTSSSTVVAALE [Fba3]
- protection against disseminated candidiasis caused by C. albicans (C. albicans; FIG. 2, antigen-pulsed DC vaccine without CFA): good protective responses
- CFUs in kidneys as compared to controls (C. albicans; FIG. 2 B and D): reduced or non-detectable CFUs
- survival ([3]; FIG. 3A, i.v. challenge 1×10^6/mouse, up to 80 days): 80%
- live fungal cells (CFU) in kidneys as compared to controls ([3]; FIG. 3B, p<0.001): significantly reduced live fungal cells
- specific antibody responses [1]: able to induce specific antibody responses

Molecule: IVIIGGGDTATVAKK (CIVIIGGGDTATVAKK; (1)..(1) May or may not be present) [GPV-P3]
- coverage against medically important Candida spp [2]: able to provide broad coverage

Molecule: FWVNPDCGLKTR (CFWVNPDCGLKTR; (1)..(1) May or may not be present) [GPV-M1]
- coverage against medically important Candida spp [2]: able to provide broad coverage

B1: 2B10C1: IgG1 mAb of hybridoma 2B10C1, specific for Met6 peptide; VH SEQ ID NO: 60, VL SEQ ID NO: 62 (antibody, V domains shown)
VH: MGWSYIILFLLATATRVHSQVQLQQPGAEVVRPGASVKVSCKASGYTVSSYWMSWVKQRPEQGLEWIGRIDPYDSETHYNQKFKDKAILTVDKSSSTAYMQLSSLTSEDSAVYYCARTAASFDYWGQGTTLTVSS
VL: MKLPVRLLVLMFWIPASSSDVVMTQTPLSLPVSLGDQASISCRSSQSLVHSNGNSYLHWYLQKPGQSPKLLIYKVSNRFSGVPDRFSGSGSGTDFTLNISRVEAEDLGVYFCSQSTHVPFTFGSGTKLEIK
- Protection of adsorbed mAb (C. albicans 3153A): None
- Protection (C. albicans 3153A): (80-100%)
- Protection (grade word) (C. albicans 3153A): High
- Protection against C. auris (C. auris AR-0386): 60-90%
- Protection against C. auris (grade word) (C. auris AR-0386): High

B2: 7H6A2: IgG2b mAb of hybridoma 7H6A2, specific for Met6 peptide (antibody)
heavy: QIQLVQSGPELKKPGETVKISCKASGYTFTDFSMHWVKQAPGKGLKWMGWINTETVEPTYADDFKGRFAFSLETSASTAYLQINNLKNEDTATYFCSRVSYDGYYGDFAMDYWSQGTSVTVSSAKTTAPSVYPLAPVCGDTTGSSVTLGCLVKGYFPEPVTLTWNSGSLSSGVHTFPAVLQSDLYTLSSSVTVTSSTWPSQSITCNVAHPASSTKVDKKIEPRGPTIKPCPPCKCPAPNLLGGPSVFIFPPKIKDVLMISLSPIVTCVVVDVSEDDPDVQISWFVNNVEVHTAQTQTHREDYNSTLRVVSALPIQHQDWMSGKEFKCKVNNKDLPAPIERTISKPKGSVRAPQVYVLPPPEEEMTKKQVTLTCMVTDFMPEDIYVEWTNNGKTELNYKNTEPVLDSDGSYFMYSKLRVEKKNWVERNSYSCSVVHEGLHNHHTTKSFSRTPGK
light: DIQMTQTTSSLSASLGDRVTISCRASQDISNYLNWYQQKPDGTVKLLIYYTSRLHSGVPSRFSGSGSGTDYSLTISNLEQEDIATYFCQQGNTLPWTFGGGTKLEIKRADAAPTVSIFPPSSEQLTSGGASVVCFLNNFYPKDINVKWKIDGSERQNGVLNSWTDQDSKDSTYSMSSTLTLTKDEYERHNSYTCEATHKTSTSPIVKSFNRNEC
- CFUs in kidneys as compared with control mice (C. auris; FIG. 14A): reduced CFUs
- CFUs in brains as compared with control mice (C. auris; FIG. 14B): reduced CFUs; also recorded: no CFU detected
- Protection of adsorbed mAb (C. albicans 3153A): None
- Protection (C. albicans 3153A): (80-90%)
- Protection (grade word) (C. albicans 3153A): High
- Protection against C. auris (C. auris AR-0386): 80-100%
- Protection against C. auris (grade word) (C. auris AR-0386): High
